Data taken from publication PMC9253567, “The Role of ZAP and TRIM25 RNA Binding in Restricting Viral Translation” (Frontiers in Cellular and Infection Microbiology, 2022).

Columns and labels:
[1] = biological target: T1, myc-tagged TRIM25 WT (tripartite motif-containing protein 25) (UniProt Q14258 1-630); experiment: cell-based or functional assay
[2] = biological target: T1, myc-tagged TRIM25 WT (tripartite …); experiment: co-IP; myc IP (anti-myc beads) of myc-TRIM25 WT from lysates of ZAP KO 293T cells co-transfected with FLAG-ZAPS or FLAG-ZAPL WT or mutants; FLAG-ZAP detected by immunoblot; FLAG IP buffer (100 mM Tris-HCl 8.0, 150 mM NaCl, 5 mM EDTA, 1 mM DTT, 5% glycerol, 0.1% NP-40), 4°C, 45 min; FLAG IP band divided by myc IP band (ImageJ); settings: partners not purified

T1 sequence (Q14258 whole entry): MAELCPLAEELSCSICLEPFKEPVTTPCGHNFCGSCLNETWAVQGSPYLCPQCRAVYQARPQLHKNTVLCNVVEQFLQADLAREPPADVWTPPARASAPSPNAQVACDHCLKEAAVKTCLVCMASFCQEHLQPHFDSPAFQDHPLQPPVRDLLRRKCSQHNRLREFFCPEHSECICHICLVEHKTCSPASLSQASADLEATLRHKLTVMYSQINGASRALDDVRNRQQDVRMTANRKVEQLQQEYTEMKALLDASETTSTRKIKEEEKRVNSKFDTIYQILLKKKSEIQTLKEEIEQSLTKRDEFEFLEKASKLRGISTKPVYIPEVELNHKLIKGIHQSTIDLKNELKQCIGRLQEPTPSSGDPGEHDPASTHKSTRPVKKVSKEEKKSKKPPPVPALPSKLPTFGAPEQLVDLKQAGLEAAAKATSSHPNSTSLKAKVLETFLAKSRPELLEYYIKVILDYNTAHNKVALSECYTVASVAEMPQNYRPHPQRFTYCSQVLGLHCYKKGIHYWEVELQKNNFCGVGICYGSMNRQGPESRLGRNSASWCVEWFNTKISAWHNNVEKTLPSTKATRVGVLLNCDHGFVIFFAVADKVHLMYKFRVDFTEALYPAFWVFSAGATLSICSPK

B1: FLAG-tagged ZAPL H191R (ZnF 4 mutant) (natural protein, human, UniProt Q7Z2W4-1 1-902, looked up)
chain: MADPEVCCFITKILCAHGGRMALDALLQEIALSEPQLCEVLQVAGPDRFVVLETGGEAGITRSVVATTRARVCRRKYCQRPCDNLHLCKLNLLGRCNYSQSERNLCKYSHEVLSEENFKVLKNHELSGLNKEELAVLLLQSDPFFMPEICKSYKGEGRQQICNQQPPCSRLHICDHFTRGNCRFPNCLRSRNLMDRKVLAIMREHGLNPDVVQNIQDICNSKHMQKNPPGPRAPSSHRRNMAYRARSKSRDRFFQGSQEFLASASASAERSCTPSPDQISHRASLEDAPVDDLTRKFTYLGSQDRARPPSGSSKATDLGGTSQAGTSQRFLENGSQEDLLHGNPGSTYLASNSTSAPNWKSLTSWTNDQGARRKTVFSPTLPAARSSLGSLQTPEAVTTRKGTGLLSSDYRIINGKSGTQDIQPGPLFNNNADGVATDITSTRSLNYKSTSSGHREISSPRIQDAGPASRDVQATGRIADDADPRVALVNDSLSDVTSTTSSRVDDHDSEEICLDHLCKGCPLNGSCSKVHFHLPYRWQMLIGKTWTDFEHMETIEKGYCNPGIHLCSVGSYTINFRVMSCDSFPIRRLSTPSSVTKPANSVFTTKWIWYWKNESGTWIQYGEEKDKRKNSNVDSSYLESLYQSCPRGVVPFQAGSRNYELSFQGMIQTNIASKTQKDVIRRPTFVPQWYVQQMKRGPDHQPAKTSSVSLTATFRPQEDFCFLSSKKYKLSEIHHLHPEYVRVSEHFKASMKNFKIEKIKKIENSELLDKFTWKKSQMKEEGKLLFYATSRAYVESICSNNFDSFLHETHENKYGKGIYFAKDAIYSHKNCPYDAKNVVMFVAQVLVGKFTEGNITYTSPPPQFDSCVDTRSNPSVFVIFQKDQVYPQYVIEYTEDKACVIS
notes: zinc finger antiviral protein (ZAP), long isoform ZAPL, cloned from pTRIP-TagRFP-hZAPL; source: ZAP KO 293T cells, transfected (pcDNA3.1-3XFLAG), in lysate; not shown: 3XFLAG, N-terminal, kept
For B1, the “JEV translation inhibition: fold inhibition of Renilla luciferase from a replication-defective JEV replicon, relative to empty plasmid, ZAP KO 293T cells, 4 h after replicon transfection” value [1] was 9.05 fold inhibition relative to empty plasmid transfection and the “ZAP-TRIM25 interaction (co-IP, FLAG-ZAP band over myc-TRIM25 band, ImageJ)” value [2] was 0.899.
